# Results from patent US12697371B2, “Method for preventing, treating or delaying myocardial damage using neuregulin and composition” (ZENSUN (SHANGHAI) SCIENCE & TECHNOLOGY, CO., LTD., priority 2019, dated 2026).
# Values joined by “and” are separate entries in the source; they are usually repeats but may differ in a detail not shown here. Equal entries are not always repeated.
# Key:
# [1] = system: rats with acute myocardial infarction caused by left coronary artery ligation; test: Echocardiography, rat acute myocardial infarction, long-term subcutaneous NRG followed by withdrawal through dose reduction (Example 4); type: in vivo, Wistar rats
# Procedure: (§1) Established in the same way as the rat model of heart failure caused by coronary artery ligation in 5.1, Embodiment 1
# The rats were randomly divided into groups and medicated upon coronary artery ligation. According to post-ligation survival, the rats were randomly divided into 2 groups by body weight. Subcutaneous injection was given 3 times a day, and the animals were weighed once a day. The animals were medicated by weight. Echocardiography was performed on day 10 after modeling. All the animals underwent echocardiography every 10 days, underwent echocardiography every week after dose reduction, and underwent echocardiography every 2 weeks after complete withdrawal. All the animals were medicated continuously till day 60, and then a three-week dose-reduction withdrawal plan was implemented: The administered dose was reduced to 15 μg/kg, 7.5 μg/kg and 3.75 μg/kg in the first, second and third week, respectively. The drug was completely withdrawn after three-week dose reduction to observe the clinical symptoms.
# (§2) After being anesthetized with 4% isoflurane, the rats were fixed onto the operating board in the left lateral recumbent position. The head of the rats was fixed in the breathing mask of the gaseous anesthesia machine, with isoflurane used for maintenance of anesthesia. After chest hair removal, the skin was disinfected with 75% alcohol and coated with a coupling agent. An echocardiography probe was used to detect any echo signal from the left ventricle of the rats. The left ventricular end-diastolic diameter and left ventricular end-systolic diameter (D) were measured. The left ventricular end-diastolic volume (EDV) and end-systolic volume (ESV) were calculated. The ejection fraction (EF) value was found, EP=(EDV−ESV)/EDV*100%.
# All experimental data were expressed in ±SD. GraphPad Prism6 was used for one-way ANOVA analysis. P<0.05 indicates a significant inter-group difference; P<0.01 indicates an extremely significant inter-group difference.
# [2] = system: rats with acute myocardial infarction caused by left coronary artery ligation; test: Echocardiography, rat acute myocardial infarction, long-term subcutaneous NRG at different frequencies (Example 2); type: in vivo, Wistar rats
# Procedure: as §1
# All the experimental animals were randomly divided into groups upon coronary artery ligation. According to post-ligation survival, the rats were randomly divided into 4 groups by body weight: the excipient group (control group), the NRG30 μg/kgDay group, the NRG30 μg/kg/BlW group and the NRG30 μgkgDay*7+QW group. Administration began on the day following the animal model establishment of myocardial infarction. For the first three groups and for the fourth group on the first 7 days, the rats were given subcutaneous injection 3 times a day and weighed once a day. They took medicine by weight and the dose was 30 μg/kg/day. For the fourth group in the last four weeks, the rats were injected with NRG on one day per week, and the daily dose was 30 μg/kg.
# as §2, with “calculated. Also, the” for “calculated. The”, “found, […]. The cardiac function of the rats was performed by echocardiography in the 1st, 2nd, 3rd and 5th weeks after the occurrence of myocardial infarction.” for “found, EP=(EDV−ESV)/EDV*100%.”
# [3] = DAY 10, 30 μg/kg/Day sc, 3 times a day, continuous
# [4] = DAY 30, 30 μg/kg/Day sc, 3 times a day, continuous
# [5] = DAY 50, 30 μg/kg/Day sc, 3 times a day, continuous
# [6] = DAY 60, 30 μg/kg/Day sc, 3 times a day, continuous
# [7] = DAY 81, 30 μg/kg/Day sc × 60 days, then three weeks of dose reduction (15, 7.5, 3.75 μg/kg)
# [8] = DAY 88, after complete withdrawal on day 81 (30 μg/kg/Day sc × 60 days + 3-week dose reduction)
# [9] = DAY 102, after complete withdrawal on day 81 (30 μg/kg/Day sc × 60 days + 3-week dose reduction)
# [10] = DAY 116, after complete withdrawal on day 81 (30 μg/kg/Day sc × 60 days + 3-week dose reduction)
# [11] = DAY 143 (ninth week after withdrawal), after complete withdrawal on day 81
# [12] = 30 μg/kg/Day sc, after 35 days of continuous administration
# [13] = DAY 8, 30 μg/kg BIW sc, 3 times a day, 2 days a week × 5 weeks
# [14] = DAY 8, 30 μg/kg Day*7 + QW sc, 3 times a day × 7 days, then 1 day/week × 4 weeks
# [15] = DAY 8, 30 μg/kg/Day sc, 3 times a day × 35 days
# [16] = DAY 15, 30 μg/kg BIW sc, 3 times a day, 2 days a week × 5 weeks
# [17] = DAY 15, 30 μg/kg Day*7 + QW sc, 3 times a day × 7 days, then 1 day/week × 4 weeks
# [18] = DAY 15, 30 μg/kg/Day sc, 3 times a day × 35 days
# [19] = DAY 22, 30 μg/kg BIW sc, 3 times a day, 2 days a week × 5 weeks
# [20] = DAY 22, 30 μg/kg Day*7 + QW sc, 3 times a day × 7 days, then 1 day/week × 4 weeks
# [21] = DAY 22, 30 μg/kg/Day sc, 3 times a day × 35 days
# [22] = DAY 36, 30 μg/kg BIW sc, 3 times a day, 2 days a week × 5 weeks
# [23] = DAY 36, 30 μg/kg Day*7 + QW sc, 3 times a day × 7 days, then 1 day/week × 4 weeks
# [24] = DAY 36, 30 μg/kg/Day sc, 3 times a day × 35 days
molecule,measurement,setting,value
"NRG: fragment of the NRG-1β2 isomer, 177-237 amino acid fragment containing an EGF-like domain (SEQ ID NO: 1); developed by Zensun (protein, listed as Homo sapiens) SHLVKCAEKEKTFCVNGGECFMVKDLSNPSRYLCKCPNEFTGDRCQNYVMASFYKAEELYQ",LVEDd and LVEDs compared with the control group,"[1]; 30 μg/kg/Day sc, 60 consecutive days",significantly reduced
same,EF value compared with the control group,"[1]; 30 μg/kg/Day sc, after 60 days of continuous administration",increased significantly
same,EF,[1]; [3],50.5 ± 4.96 %
same,LVEDd,[1]; [3],0.821 ± 0.05 cm
same,LVEDs,[1]; [3],0.637 ± 0.06 cm
same,EF,[1]; [4],46.8 ± 6.37 %
same,LVEDd,[1]; [4],0.912 ± 0.06 cm
same,LVEDs,[1]; [4],0.725 ± 0.07 cm
same,EF,[1]; [5],44.4 ± 7.85 %
same,LVEDd,[1]; [5],0.934 ± 0.07 cm
same,LVEDs,[1]; [5],0.754 ± 0.09 cm
same,EF,[1]; [6],43.8±8.0% and 43.8 ± 8.04 %
same,LVEDd,[1]; [6],0.981±0.08 cm
same,LVEDs,[1]; [6],0.794±0.08 cm
same,EF,[1]; [7],42.3±11.2%
same,LVEDd,[1]; [7],0.981±0.08 cm and 0.981 ± 0.07 cm
same,LVEDs,[1]; [7],0.799±0.08 cm
same,EF,[1]; [8],39.3±12.7% and 39.3 ± 12.71 %
same,LVEDd,[1]; [8],0.994±0.08 cm
same,LVEDs,[1]; [8],0.826±0.10 cm
same,EF,[1]; [9],36.6 ± 7.69 %
same,LVEDd,[1]; [9],1.031 ± 0.07 cm
same,LVEDs,[1]; [9],0.872 ± 0.08 cm
same,EF,[1]; [10],33.3 ± 5.12 %
same,LVEDd,[1]; [10],1.054 ± 0.07 cm
same,LVEDs,[1]; [10],0.908 ± 0.08 cm
same,EF,[1]; [11],33.4±7.6%
same,LVEDd,[1]; [11],1.104±0.08 cm
same,LVEDs,[1]; [11],0.950±0.09 cm
same,"Cardiac function, overall conclusion",[1]; a long time after withdrawal,significant improving effect on the cardiac function
same,EF value compared with the control group,[1]; nine weeks after withdrawal,still showed a rising trend
same,LVEDd and LVEDs compared with the control group,[1]; nine weeks after withdrawal,there remained a significant difference
same,EF value compared with the control group,"[2]; 30 μg/kg/BIW sc, after 35 days",rising trend
same,EF value compared with the control group,[2]; [12],significantly higher
same,LVEDd and LVEDs compared with the control group,[2]; [12],significantly reduce
same,Cardiac function compared with the control group,"[2]; 30 μg/kg/Day*7+QW sc, first 7 days of continuous administration",improved to some extent
same,EF,[2]; [13],50.9 ± 8.958%
same,LVEDd,[2]; [13],0.809 ± 0.045 cm
same,LVEDs,[2]; [13],0.625 ± 0.068 cm
same,EF,[2]; [14],50.9 ± 7.337%
same,LVEDd,[2]; [14],0.785 ± 0.045 cm
same,LVEDs,[2]; [14],0.607 ± 0.061 cm
same,EF,[2]; [15],52.2 ± 7.802%
same,LVEDd,[2]; [15],0.785 ± 0.046 cm
same,LVEDs,[2]; [15],0.601 ± 0.063 cm
same,EF,[2]; [16],48.9 ± 9.893%
same,LVEDd,[2]; [16],0.856 ± 0.065 cm
same,LVEDs,[2]; [16],0.671 ± 0.091 cm
same,EF,[2]; [17],47.1 ± 8.344%
same,LVEDd,[2]; [17],0.864 ± 0.054 cm
same,LVEDs,[2]; [17],0.686 ± 0.074 cm
same,EF,[2]; [18],50.3 ± 8.49%
same,LVEDd,[2]; [18],0.832 ± 0.054 cm
same,LVEDs,[2]; [18],0.646 ± 0.075 cm
same,EF,[2]; [19],47.1 ± 10.427%
same,LVEDd,[2]; [19],0.896 ± 0.074 cm
same,LVEDs,[2]; [19],0.711 ± 0.102 cm
same,EF,[2]; [20],44.7 ± 8.434%
same,LVEDd,[2]; [20],0.905 ± 0.062 cm
same,LVEDs,[2]; [20],0.729 ± 0.08 cm
same,EF,[2]; [21],49.5 ± 7.897%
same,LVEDd,[2]; [21],0.859 ± 0.057 cm
same,LVEDs,[2]; [21],0.670 ± 0.069 cm
same,EF,[2]; [22],45.2 ± 10.248%
same,LVEDd,[2]; [22],0.928±0.084 cm
same,LVEDs,[2]; [22],0.746 ± 0.110 cm
same,EF,[2]; [23],42.7±9.892%
same,LVEDd,[2]; [23],0.931±0.070 cm
same,LVEDs,[2]; [23],0.76 ± 0.097 cm
same,EF,[2]; [24],47.9±8.342%
same,LVEDd,[2]; [24],0.879±0.058 cm
same,LVEDs,[2]; [24],0.694±0.077 cm
